The target in the assay is T1, FGFR4-Ecto-Fc (ectodomain of human FGFR4 fused to the Fc region of human IgG1) (human, UniProt P22455 22-369).
T1 sequence (looked up): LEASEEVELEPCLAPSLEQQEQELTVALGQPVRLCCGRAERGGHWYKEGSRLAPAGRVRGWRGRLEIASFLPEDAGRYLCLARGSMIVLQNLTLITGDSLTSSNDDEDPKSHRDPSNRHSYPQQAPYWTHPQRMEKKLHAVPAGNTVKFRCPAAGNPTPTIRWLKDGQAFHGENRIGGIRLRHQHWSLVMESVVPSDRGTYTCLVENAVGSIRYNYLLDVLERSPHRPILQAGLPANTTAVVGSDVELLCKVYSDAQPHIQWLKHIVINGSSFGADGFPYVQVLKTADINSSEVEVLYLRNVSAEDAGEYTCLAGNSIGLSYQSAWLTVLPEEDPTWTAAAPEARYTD
Put plainly: pull-down.

B1: purified recombinant human FAM3B-His protein (ligand, UniProt P58499 30-235, looked up)
chain: ELIPDAPLSSAAYSIRSIGERPVLKAPVPKRQKCDHWTPCPSDTYAYRLLSGGGRSKYAKICFEDNLLMGEQLGNVARGINIAIVNYVTGNVTATRCFDMYEGDNSGPMTKFIQSAAPKSLLFMVTYDDGSTRLNNDAKNAIEALGSKEIRNMKFRSSWVFIAAKGLELPSEIQREKINHSDAKNNRYSGWPAEIQIEGCIPKERS
Take B1: the binding result is on record as “binds”.

(Values after publication PMC8158011 (Proceedings of the National Academy of Sciences of the …, 2021).)
